The target in this assay is T1, CCND1 (G1/S-specific cyclin-D1) peptide on HLA-DPA1*01:03 / HLA-DPB1*04:01 (human).
T1 peptide: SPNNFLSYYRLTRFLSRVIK
The assay is described as follows: multimer staining.

B1: 03-CCND1219-238 (TCR, V domains shown)
Valpha: KDQVFQPSTVASSEGAVVEIFCNHSVSNAYNFFWYLHFPGCAPRLLVKGSKPSQQGRYNMTYERFSSSLLILQVREADAAVYYCAVCTLYNFNKFYFGSGTKLNVKP
Vbeta: GVTQTPKFQVLKTGQSMTLQCAQDMNHEYMSWYRQDPGMGLRLIHYSVGAGITDQGEVPNGYNVSRSTTEDFPLRLLSAAPSQTSVYFCASLTDNNEQFFGPGTRLTVL
Turning to B1, the binding result is reported as “recognises”.

(Values after patent US20220281942A1 (published 2022).)
